{"source": "patent US7888089B2", "about": "“eNOS mutations useful for gene therapy and therapeutic screening” (Yale University, priority 1999, dated 2011)", "key": {"eNOS [1]": {"system": "eNOS", "assay": "Hemoglobin capture assay of NO production by purified eNOS", "format": "biochemical, bovine", "settings": "for Kcat (substrate Arginine, Hemoglobin capture): rate of NO production vs L-arginine, optimal conditions", "experimental": "Assay for NOS Activity—NO production was measured by the hemoglobin capture assay as described (Kelm et al., 1988). Briefly, the reaction mixture contained eNOS (0.5-2.5 μg), oxyhemoglobin (8 μM), L-arginine (100 μM), BH4 (5 μM), CaCl2 (120 μM), calmodulin (120-200 nM), and NADPH (100 μM) in HEPES buffer (50 mM), pH 7.4. […] Under these conditions, free calcium was calculated using the WinMAXC program, version\nNOS activity was monitored for linearity over 2 min at 401 nm, and NO production was calculated based on the change of absorbance using the extinction coefficient of 60 mM^−1 cm^−1. All reactions were carried out at 23° C., and each data point represents 3-8 observations. The extinction coefficient of 0.0033 μM^−1 cm^−1 at 276 nm was used for determination of calmodulin concentration. […] When the inactivation of eNOS was determined by the addition of EGTA (200-800 μM) to the reaction mixture, chelator was added 1 min after initiation of the reaction by NADPH. Identical conditions were used when NADPH-cytochrome c reductase activity was examined. These reactions contained CaM (120 nM) and CaCl2 (200 μM) in a 0.5-ml volume with eNOS (0.5 μg)."}, "cytochrome c": {"system": "cytochrome c", "assay": "NADPH-cytochrome c reductase activity of purified eNOS", "format": "biochemical", "settings": "for Kcat (CaM, Cytochrome c): CaM activation of cytochrome c reduction; for EC50: cytochrome c reduction; for Km: Km for NADPH; for Kcat − CaM (NADPH, Cytochrome c) / Kcat + CaM (NADPH, Cytochrome c): NADPH dependence", "experimental": "Assays for Reductase Activity—NADPH-cytochrome c reductase activity and 2,6-dichlorophenolindophenol (DCIP) reduction were measured as a change in absorbance at 550 nm as described previously by Martasek et al. (1999) and Masters et al. (1967) using an extinction coefficient of 0.021 μM^−1 cm^−1 for both cytochrome c and DCIP. Briefly, a reaction mixture (1 ml) contained either cytochrome c (90 μM); DCIP (36 μM), HEPES buffer (50 mM) at pH 7.6, NaCl (250 mM), NADPH (100 μM), calmodulin (120 nM), and CaCl2 (200 μM); or other substances as indicated. The reaction was monitored for 60 s (at 23° C.) after the addition of eNOS. When inactivation of reductase activity was determined by the addition of EGTA (200-800 μM), chelator was added 1 min after initiation of the reaction and monitored for an additional 1 min. The reaction contained HEPES buffer (50 mM) at pH 7.6, CaM (120 nM), and CaCl2 (200 μM) and was initiated with NADPH (100 μM). No NaCl was added in experiments that examined EGTA inactivation of eNOS to mimic the conditions used in the hemoglobin capture experiments. […] Determination of the calcium EC50 for eNOS was performed as described above for the hemoglobin capture assay."}, "Akt": {"system": "Akt", "assay": "In vitro kinase reaction with Akt immunoprecipitated from COS cells", "format": "biochemical", "settings": "HA-Akt immunoprecipitate, n=3"}, "eNOS [2]": {"system": "eNOS", "assay": "Conversion of L-arginine to L-citrulline by purified eNOS", "format": "biochemical, bovine", "settings": "for Kcat (CaM, L-Citrulline): CaM activation of NOS activity", "experimental": "The conversion of L-arginine to L-citrulline was assayed as described previously by Bredt et al. (1990). Briefly, eNOS (0.25-2 μg) was incubated for 3-10 min at 23° C. in the following reaction mixture: 3 pmol of L-[3H]arginine (55 Ci/mmol), 10-300 μM arginine, 1 mM NADPH, 120-200 nM calmodulin, 2 mM CaCl2, and 30 μM BH4 in a final reaction volume of 50-100 μl. The reaction was terminated by the addition of 0.5 ml of 20 mM HEPES, pH 5.5, containing 2 mM EGTA and EDTA. The reaction mixture was placed over Dowex AG50WX8, and the flow-through was counted on a Packard 1500 liquid scintillation analyzer."}, "eNOS [3]": {"system": "eNOS", "assay": "NOS activity (3H-L-arginine to 3H-L-citrulline) in COS cell lysates", "format": "biochemical, bovine", "settings": "COS cells transfected with eNOS only, n=3", "excerpt": "NOS activity assays: The conversion of ^3H-L-arginine to ^3H-L-citrulline was used to determine NOS activity in COS cell or endothelial cell lysates as previously described by Garcia-Cardena et al. (1998)."}}, "note": "Entries after “also recorded” stand apart in the source; their conditions may differ. Like-named read-outs stand apart in the source and are kept apart here.", "data": [{"molecule": "Wild type: Wild type bovine endothelial nitric oxide synthase (eNOS) (protein, UniProt P29473 2-1205, looked up) Nitric oxide synthase 3: GNLKSVGQEPGPPCGLGLGLGLGLCGKQGPASPAPEPSRAPAPATPHAPDHSPAPNSPTLTRPPEGPKFPRVKNWELGSITYDTLCAQSQQDGPCTPRCCLGSLVLPRKLQTRPSPGPPPAEQLLSQARDFINQYYSSIKRSGSQAHEERLQEVEAEVASTGTYHLRESELVFGAKQAWRNAPRCVGRIQWGKLQVFDARDCSSAQEMFTYICNHIKYATNRGNLRSAITVFPQRAPGRGDFRIWNSQLVRYAGYRQQDGSVRGDPANVEITELCIQHGWTPGNGRFDVLPLLLQAPDEAPELFVLPPELVLEVPLEHPTLEWFAALGLRWYALPAVSNMLLEIGGLEFSAAPFSGWYMSTEIGTRNLCDPHRYNILEDVAVCMDLDTRTTSSLWKDKAAVEINLAVLHSFQLAKVTIVDHHAATVSFMKHLDNEQKARGGCPADWAWIVPPISGSLTPVFHQEMVNYILSPAFRYQPDPWKGSATKGAGITRKKTFKEVANAVKISASLMGTLMAKRVKATILYASETGRAQSYAQQLGRLFRKAFDPRVLCMDEYDVVSLEHEALVLVVTSTFGNGDPPENGESFAAALMEMSGPYNSSPRPEQHKSYKIRFNSVSCSDPLVSSWRRKRKESSNTDSAGALGTLRFCVFGLGSRAYPHFCAFARAVDTRLEELGGERLLQLGQGDELCGQEEAFRGWAKAAFQASCETFCVGEEAKAAAQDIFSPKRSWKRQRYRLSTQAEGLQLLPGLIHVHRRKMFQATVLSVENLQSSKSTRATILVRLDTAGQEGLQYQPGDHIGICPPNRPGLVEALLSRVEDPPPPTESVAVEQLEKGSPGGPPPSWVRDPRLPPCTLRQALTFFLDITSPPSPRLLRLLSTLAEEPSEQQELETLSQDPRRYEEWKWFRCPTLLEVLEQFPSVALPAPLLLTQLPLLQPRYYSVSSAPNAHPGEVHLTVAVLAYRTQDGLGPLHYGVCSTWLSQLKTGDPVPCFIRGAPSFRLPPDPYVPCILVGPGTGIAPFRGFWQERLHDIESKGLQPAPMTLVFGCRCSQLDHLYRDEVQDAQERGVFGRVLTAFSREPDSPKTYVQDILRTELAAEVHRVLCLERGHMFVCGDVTMATSVLQTVQRILATEGDMELDEAGDVIGVLRDQQRYHEDIFGLTLRTQEVTSRIRTQSFSLQERHLRGAVPWAFDPPGPDTPGP", "values": [{"measurement": "NO production after calcium chelation with EGTA", "setting": "eNOS [1]; 600 μM EGTA, 200 μM calcium, listed as wild type eNOS", "value": "no activity was detected; also recorded: no detectable activity"}, {"measurement": "EC50", "setting": "eNOS [1]; EC50 for free calcium, NO production, 250 nM CaM, read-out: EC50 (Ca2+, Hemoglobin capture, 100 mM KCl)", "value": 310, "unit": "nM"}, {"measurement": "Km", "setting": "eNOS [1]; Km for L-arginine, read-out: Km (substrate Arginine, Hemoglobin capture)", "value": 1.8, "unit": "µM"}, {"measurement": "Km", "setting": "eNOS [1]; Km for NADPH, in presence of CaM, read-out: Km (NADPH, Hemoglobin capture)", "value": 8, "unit": "µM"}, {"measurement": "Kcat (NADPH, Hemoglobin capture)", "setting": "eNOS [1]; NADPH dependence, in presence of CaM", "value": "0.283 ± 0.017", "unit": "s⁻¹"}, {"measurement": "Kcat (Ca2+, Hemoglobin capture, 100 mM KCl)", "setting": "eNOS [1]; calcium activation, 250 nM CaM", "value": "0.967 ± 0.017", "unit": "s⁻¹"}, {"measurement": "maximal turnover rate, FIG. 8C", "setting": "eNOS [1]; calcium-dependent NO production", "value": 58, "unit": "min1"}, {"measurement": "maximal turnover rate, FIG. 8A", "setting": "eNOS [1]; calmodulin-dependent hemoglobin capture", "value": 22, "unit": "min⁻¹"}, {"measurement": "Kcat (substrate Arginine, Hemoglobin capture)", "setting": "eNOS [1]", "value": "0.45 ± 0.017", "unit": "s⁻¹"}, {"measurement": "Kcat (substrate Arginine, Hemoglobin capture)", "setting": "eNOS [1]; listed as wild type", "value": "0.45 ± 0.017", "unit": "s⁻¹"}, {"measurement": "Kcat (CaM, Cytochrome c)", "setting": "cytochrome c", "value": "10.3 ± 1.3", "unit": "s⁻¹"}, {"measurement": "Kcat (CaM, Cytochrome c)", "setting": "cytochrome c; listed as wild type eNOS", "value": 10.3, "unit": "s⁻¹"}, {"measurement": "EC50", "setting": "cytochrome c; EC50 for CaM, listed as wild type, read-out: EC50 (CaM, Cytochrome c)", "value": 21, "unit": "nM"}, {"measurement": "EC50", "setting": "cytochrome c; EC50 for CaM, read-out: EC50 (CaM, Cytochrome c)", "value": 13, "unit": "nM"}, {"measurement": "EC50", "setting": "cytochrome c; EC50 for free calcium, read-out: EC50 (Ca2+, Cytochrome c, 100 mM KCl)", "value": 290, "unit": "nM"}, {"measurement": "Km", "setting": "cytochrome c; absence of CaM", "value": 0.4, "unit": "µM"}, {"measurement": "Km", "setting": "cytochrome c; presence of CaM", "value": 0.75, "unit": "µM"}, {"measurement": "Kcat − CaM (NADPH, Cytochrome c)", "setting": "cytochrome c; absence of CaM", "value": "1.17 ± 0.083", "unit": "s⁻¹"}, {"measurement": "Kcat − CaM (NADPH, Cytochrome c)", "setting": "cytochrome c; absence of CaM, listed as wild type eNOS", "value": 1.17, "unit": "s⁻¹"}, {"measurement": "Kcat + CaM (NADPH, Cytochrome c)", "setting": "cytochrome c; presence of CaM", "value": "7.67 ± 0.3", "unit": "s⁻¹"}, {"measurement": "Kcat + CaM (NADPH, Cytochrome c)", "setting": "cytochrome c; presence of CaM, listed as wild type eNOS", "value": 7.67, "unit": "s⁻¹"}, {"measurement": "cytochrome c reduction, first value of pair (with superoxide dismutase)", "setting": "cytochrome c; absence of CaM", "value": "86 ± 6", "unit": "min⁻¹"}, {"measurement": "cytochrome c reduction, second value of pair (without superoxide dismutase)", "setting": "cytochrome c; absence of CaM", "value": "95 ± 8", "unit": "min⁻¹"}, {"measurement": "Kcat (Ca2+, Cytochrome c, 100 mM KCl)", "setting": "cytochrome c; calcium activation", "value": "31.82 ± 0.55", "unit": "s⁻¹"}, {"measurement": "maximal turnover rate, FIG. 8D", "setting": "cytochrome c; calcium-dependent cytochrome c reduction", "value": 1930, "unit": "min⁻¹"}, {"measurement": "maximal turnover rate, FIG. 8B", "setting": "cytochrome c; calmodulin-dependent cytochrome c reduction", "value": 620, "unit": "min1"}, {"measurement": "reductase activity after calcium chelation with EGTA", "setting": "cytochrome c; highest concentration of EGTA", "value": "residual reductase activity was found"}, {"measurement": "cytochrome c reduction with superoxide dismutase", "setting": "cytochrome c; presence of CaM", "value": "610 ± 51", "unit": "min⁻¹"}, {"measurement": "cytochrome c reduction without superoxide dismutase", "setting": "cytochrome c; presence of CaM", "value": "866 ± 8", "unit": "min⁻¹"}, {"measurement": "relative decrease in cytochrome c activity in the presence of superoxide dismutase", "setting": "cytochrome c; presence of CaM", "value": 30, "unit": "%"}, {"measurement": "CaM-stimulated cytochrome c reduction", "setting": "cytochrome c; presence of CaM, n=3-5", "value": "749 ± 35", "unit": "min⁻¹"}, {"measurement": "level of stimulation of cytochrome c reduction by CaM", "setting": "cytochrome c; with vs without CaM", "value": 8, "unit": "fold"}, {"measurement": "phosphorylation of substrate by active Akt", "setting": "Akt", "value": "115.4±3.8 pmol of ATP/nmol substrate"}, {"measurement": "Kcat (CaM, L-Citrulline)", "setting": "eNOS [2]", "value": "0.367 ± 0.033", "unit": "s⁻¹"}, {"measurement": "Kcat (CaM, L-Citrulline)", "setting": "eNOS [2]; listed as wild type", "value": 0.367, "unit": "s⁻¹"}, {"measurement": "EC50", "setting": "eNOS [2]; EC50 for CaM, NOS activity", "value": 8, "unit": "nM"}, {"measurement": "NOS activity in lysates", "setting": "eNOS [3]", "value": "85.3±27.0 pmol L-citrulline generated/mg protein"}]}]}
